The record followed here is article PMC3035459 (Nucleic Acids Research, 2010).

This series concerns the molecule itself. Description: crystal structure.

B1: Methanocaldococcus jannaschii O-phosphoseryl-tRNA kinase (enzyme, UniProt Q58933 1-248, looked up)
chain: MLIILTGLPGVGKSTFSKNLAKILSKNNIDVIVLGSDLIRESFPVWKEKYEEFIKKSTYRLIDSALKNYWVIVDDTNYYNSMRRDLINIAKKYNKNYAIIYLKASLDVLIRRNIERGEKIPNEVIKKMYEKFDEPGKKYKWDEPFLIIDTTKDIDFNEIAKKLIEKSKEIPKFYVLEENKNKNNNISDKIDKETRKIVSEYIKSKKLDKDKIKEVVELRKEFLKKIKKMEEVDADRVLKEFKDLLNSY
Consider B1, for which the “stoichiometry N” value came out at 2.
